Assay results taken from paper PMC3310279 (Bioconjugate Chemistry, 2012).

System: MDA-MB-435 human breast tumor xenografts
Assay: Biodistribution in mice bearing MDA-MB-435 xenografts
Assay type: in vivo
Conditions: MDA-MB-435 tumor-bearing athymic nude mice, 60 min p.i., mean ± SD n = 4

[^99mTc(HYNIC-K(NIC)-3G-RGD2)(tricine)] [Complex 2]
Tumor/Liver ratio: 4.1 ± 0.97
